Source: article PMC6321254

What was measured:
HA-CXCR1-RLuc (human) [1] = biological target: HA-CXCR1-RLuc (human) (UniProt P25024)
HA-CXCR1-RLuc (human) [2] = biological target: HA-CXCR1-RLuc (human) (UniProt P25024); remark: listed apart in the source
HA-CXCR1-RLuc (human) [3] = biological target: HA-CXCR1-RLuc (human) (UniProt P25024); remark: listed apart in the source

Chain of HA-CXCR1-RLuc (human) (P25024 2-350): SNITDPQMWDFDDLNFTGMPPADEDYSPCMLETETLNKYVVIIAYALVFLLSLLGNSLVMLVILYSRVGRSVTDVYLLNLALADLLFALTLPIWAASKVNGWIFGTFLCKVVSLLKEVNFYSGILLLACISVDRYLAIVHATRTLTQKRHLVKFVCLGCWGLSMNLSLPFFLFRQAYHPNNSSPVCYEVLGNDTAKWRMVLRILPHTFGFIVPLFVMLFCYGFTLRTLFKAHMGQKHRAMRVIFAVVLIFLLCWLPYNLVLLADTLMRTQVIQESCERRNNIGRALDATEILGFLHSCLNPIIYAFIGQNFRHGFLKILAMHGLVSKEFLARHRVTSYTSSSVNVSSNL

| internalization of endogenous CXCR1 on freshly purified human neutrophils (flow cytometry of surface receptor; 0.1-100 nM, 1 h, 37 °C); lowest concentration with a significant effect (HA-CXCR1-RLuc (human) [1]) [nM] | Gαi-dependent reduction of forskolin-raised cAMP (AlphaScreen cAMP assay) in HEK-293T cells transfected with CXCR1 (pcDNA6 construct without RLuc); 0.1-100 nM; potency against CXCL8(1-77) (fold (against CXCL8(1-77))) (HA-CXCR1-RLuc (human) [2]) | potency to induce recruitment of β-arrestin 2-EYFP to CXCR1-RLuc (BRET dose-response, HEK-293T), against CXCL8(1-77) (fold (against CXCL8(1-77))) (HA-CXCR1-RLuc (human) [3]) | Substance |
| --- | --- | --- | --- |
| > 10 | – | – | CXCL8(1-77) (ligand) |
| – | > 10 | – | [Cit5]CXCL8(1-77) (ligand) |
| – | > 10 | 10 | CXCL8(6-77) (ligand) |
